Laboratory results from patent US11278600B2, “Human alpha-galactosidase variants” (Codexis, Inc., priority 2014, dated 2022).
Substitutions are numbered along the chain they refer to.

B1: 292 (protein)
chain: LDNGLARTPTMGWLHWERFMCNLDCQEEPDSCISEKLFMEMAERMVSEGWKDAGYEYLCIDDCWMAPQRDSEGRLQADPQRFPHGIRQLANYVHSKGLKFGIYADVGNKTCAGFPGSFGYYDIDAQTFADWGVDLLKFDGCYCDSLENLADGYKHMSLALNRTGRSIVYSCEWPLYMWPFQKPNYTEIRQYCNHWRNFADIDDSWASVKSILDWTSFNHERIVDVAGPGGWNDPDMLVIGNFGLSWDQQVTQMALWAIMAAPLFMSNDLRHISPQAKALLQDKDVIAINQDPLGKQGYQLRKGDNFEVWERPLSGLAWAVAVINRQEIGGPRSYTIAVASLGKGVACNPACFITQLLPVKRKLGFYEWTSRLKSHVNPTGTVLLQLENTMQMSLKDLL
modifications: Synthetic Polypeptide sequence of Variant No. 292 of mature Human GLA
B2: 301 (protein)
chain: B1 chain with R44L, F100L, V208I, H219Q, D247N, K302Q, V322I, E367N, V376I
modifications: Synthetic Polypeptide sequence of Variant No. 301 of mature Human GLA
B3: 300 (protein)
chain: B1 chain with R44L, F100L, H219Q, R221T, K302Q, K343G, E367N, V376I
modifications: Synthetic Polypeptide sequence of Variant No. 300 of mature Human GLA
B4: 295 (protein)
chain: B1 chain with H219Q, R221T, V322I, F365L
modifications: Synthetic Polypeptide sequence of Variant No. 295 of mature Human GLA
B5: 302 (protein)
chain: B1 chain with R44L, F100L, V208I, H219Q, D247N, K302Q, K343G, E367N, V376I
modifications: Synthetic Polypeptide sequence of Variant No. 302 of mature Human GLA
B6: 294 (protein)
chain: B1 chain with H219Q, R221T, K302Q, K373R
modifications: Synthetic Polypeptide sequence of Variant No. 294 of mature Human GLA
B7: 293 (protein)
chain: B1 chain with H219Q, R221K, F365L, K373R
modifications: Synthetic Polypeptide sequence of Variant No. 293 of mature Human GLA
B8: 233 (protein)
chain: LDNGLARTPTMGWLHWERFMCNLDCQEEPDSCISEKLFMEMAELMVSEGWKDAGYEYLCIDDCWMAPQRDSEGRLQADPQRFPHGIRQLANYVHSKGLKLGIYADVGNKTCAGFPGSFGYYDIDAQTFADWGVDLLKFDGCYCDSLENLADGYKHMSLALNRTGRSIVYSCEWPLYMWPFQKPNYTEIRQYCNHWRNFADIDDSWASIKSILDWTSRNQERIVDVAGPGGWNDPDMLVIGNFGLSWDQQVTQMALWAIMAAPLFMSNDLRHISPQAKALLQDKDVIAINQDPLGKQGYQLRQGDNFEVWERPLSGDAWAVAMINRQEIGGPRSYTIAVASLGKGVACNPGCFITQLLPVKRKLGFYDWDSRLRSHINPTGTVLLQLENTMQMSLKDLL
modifications: Synthetic Polypeptide sequence of Variant No. 233 of mature Human GLA
B9: 236 (protein)
chain: B8 chain with D247N, Q302K, D316L, G350A
modifications: Synthetic Polypeptide sequence of Variant No. 236 of mature Human GLA
B10: 235 (protein)
chain: B8 chain with Q302K, A337P
modifications: Synthetic Polypeptide sequence of Variant No. 235 of mature Human GLA
B11: 234 (protein)
chain: B8 chain with Q302K, D316L
modifications: Synthetic Polypeptide sequence of Variant No. 234 of mature Human GLA

Legend:
Assay type in all cases: biochemical
[1] = HTP-analysis of yeast culture supernatants, no challenge (MUGal hydrolysis); conditions: yeast culture supernatant
Summary of the method: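 GLA variants were expressed in INVSc1 yeast grown in SD-Ura broth with glucose at 30° C., and culture supernatants were collected after 66-84 h. Supernatant was mixed with McIlvaine buffer pH 4.8 and MUGal (2 mM stock) in 50 mM citrate, 200 mM KCl, pH 4.6, incubated at 37° C. for 30-180 minutes, then quenched with sodium carbonate.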

[2] = HTP-analysis of supernatants pretreated with acid (MUGal hydrolysis); conditions: yeast culture supernatant; for Relative Activity of GLA Variants After Challenge at pH 4.2: activity of the variant/activity of Rd2BB (SEQ ID NO: 10); for Relative Activity of GLA Variants After Challenge at pH 4.0: activity of the variant/activity of Rd3BB (SEQ ID NO: 13)
Summary of the method: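 Fluorescence of MUGal hydrolysis (Ex. 355 nm, Em. 448 nm) is read after sodium carbonate quench. The enzyme source is INVSc1 yeast culture supernatant, first exposed to pH 3.3-4.3 McIlvaine buffer at 37° C. for 1-3 h, then reacted at pH 4.8 for 30-180 minutes.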

[3] = HTP-analysis of supernatants pretreated with base (MUGal hydrolysis); conditions: yeast culture supernatant; for Relative Activity of GLA Variants After Challenge at pH 7.6: activity of the variant/activity of Rd2BB (SEQ ID NO: 10); for Relative Activity of GLA Variants After Challenge at pH 8.2: activity of the variant/activity of Rd3BB (SEQ ID NO: 13)
Summary of the method: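 GLA variants secreted from yeast INVSc1; culture supernatants pre-incubated with McIlvaine buffer pH 7.0–8.2 or 200 mM bicarbonate pH 9.1–9.7 at 37° C. for 1–18 h. Residual activity: MUGal (4 mM stock) hydrolysis at pH 4.3–4.8, 37° C., 30–180 min, carbonate quench; fluorescence Ex 355/Em 448 nm.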

[4] = HTP-analysis of supernatants pretreated with bovine serum (MUGal hydrolysis); conditions: yeast culture supernatant
Summary of the method: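 Yeast INVSc1 culture supernatants containing secreted GLA variants were mixed with bovine serum (20:80) and held 1 h at 37° C. Serum-treated samples then reacted with MUGal (4 mM stock) in citrate/McIlvaine buffer (pH 4.3/4.8) for 180 min at 37° C., were quenched with sodium carbonate, and read by fluorescence (Ex 355, Em 448 nm).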

[5] = activity of the variant/activity of Rd2BB (SEQ ID NO: 10)
[6] = activity of the variant/activity of Rd3BB (SEQ ID NO: 13)

Row | Molecule | Relative Activity of GLA Variants After No Challenge (NC) [1, 5] | Relative Activity of GLA Variants After Challenge at pH 4.2 [2] | Relative Activity of GLA Variants After Challenge at pH 7.6 [3] | Relative Activity of GLA Variants After Challenge with Serum [4, 5] | Relative Activity of GLA Variants After No Challenge (NC) [1, 6] | Relative Activity of GLA Variants After Challenge at pH 4.0 [2] | Relative Activity of GLA Variants After Challenge at pH 8.2 [3] | Relative Activity of GLA Variants After Challenge with Serum [4, 6]
1 | B1 | +++ (+++ = >2.5 relative activity over Rd2BB (SEQ ID NO: 10)) | ++ (++ = 1.5 to 2.5 relative activity over Rd2BB (SEQ ID NO: 10)) | +++ (+++ = >2.5 relative activity over Rd2BB (SEQ ID NO: 10)) | ++ (++ = 1.5 to 2.5 relative activity over Rd2BB (SEQ ID NO: 10)) | – | – | – | –
2 | B2 | – | – | – | – | + (+ = 0.5 to 1.5 relative activity over Rd3BB (SEQ ID NO: 13)) | + (+ = 0.5 to 1.5 relative activity over Rd3BB (SEQ ID NO: 13)) | + (+ = 0.5 to 1.5 relative activity over Rd3BB (SEQ ID NO: 13)) | − (− = <0.5 relative activity to Rd3BB (SEQ ID NO: 13))
3 | B3 | – | – | – | – | + (+ = 0.5 to 1.5 relative activity over Rd3BB (SEQ ID NO: 13)) | ++ (++ = >1.5 to 2.5 relative activity over Rd3BB (SEQ ID NO: 13)) | ++ (++ = >1.5 to 2.5 relative activity over Rd3BB (SEQ ID NO: 13)) | ++ (++ = >1.5 to 2.5 relative activity over Rd3BB (SEQ ID NO: 13))
4 | B4 | +++ (+++ = >2.5 relative activity over Rd2BB (SEQ ID NO: 10)) | +++ (+++ = >2.5 relative activity over Rd2BB (SEQ ID NO: 10)) | +++ (+++ = >2.5 relative activity over Rd2BB (SEQ ID NO: 10)) | +++ (+++ = >2.5 relative activity over Rd2BB (SEQ ID NO: 10)) | – | – | – | –
5 | B5 | – | – | – | – | + (+ = 0.5 to 1.5 relative activity over Rd3BB (SEQ ID NO: 13)) | + (+ = 0.5 to 1.5 relative activity over Rd3BB (SEQ ID NO: 13)) | + (+ = 0.5 to 1.5 relative activity over Rd3BB (SEQ ID NO: 13)) | + (+ = 0.5 to 1.5 relative activity over Rd3BB (SEQ ID NO: 13))
6 | B6 | ++ (++ = 1.5 to 2.5 relative activity over Rd2BB (SEQ ID NO: 10)) | ++ (++ = 1.5 to 2.5 relative activity over Rd2BB (SEQ ID NO: 10)) | +++ (+++ = >2.5 relative activity over Rd2BB (SEQ ID NO: 10)) | + (+ = 0.5 to 1.5 relative activity over Rd2BB (SEQ ID NO: 10)) | – | – | – | –
7 | B7 | ++ (++ = 1.5 to 2.5 relative activity over Rd2BB (SEQ ID NO: 10)) | + (+ = 0.5 to 1.5 relative activity over Rd2BB (SEQ ID NO: 10)) | ++ (++ = 1.5 to 2.5 relative activity over Rd2BB (SEQ ID NO: 10)) | + (+ = 0.5 to 1.5 relative activity over Rd2BB (SEQ ID NO: 10)) | – | – | – | –
8 | B8 | +++ (+++ = >2.5 relative activity over Rd2BB (SEQ ID NO: 10)) | +++ (+++ = >2.5 relative activity over Rd2BB (SEQ ID NO: 10)) | +++ (+++ = >2.5 relative activity over Rd2BB (SEQ ID NO: 10)) | +++ (+++ = >2.5 relative activity over Rd2BB (SEQ ID NO: 10)) | – | – | – | –
9 | B9 | +++ (+++ = >2.5 relative activity over Rd2BB (SEQ ID NO: 10)) | ++ (++ = 1.5 to 2.5 relative activity over Rd2BB (SEQ ID NO: 10)) | +++ (+++ = >2.5 relative activity over Rd2BB (SEQ ID NO: 10)) | ++ (++ = 1.5 to 2.5 relative activity over Rd2BB (SEQ ID NO: 10)) | – | – | – | –
10 | B10 | +++ (+++ = >2.5 relative activity over Rd2BB (SEQ ID NO: 10)) | +++ (+++ = >2.5 relative activity over Rd2BB (SEQ ID NO: 10)) | +++ (+++ = >2.5 relative activity over Rd2BB (SEQ ID NO: 10)) | +++ (+++ = >2.5 relative activity over Rd2BB (SEQ ID NO: 10)) | – | – | – | –
11 | B11 | +++ (+++ = >2.5 relative activity over Rd2BB (SEQ ID NO: 10)) | +++ (+++ = >2.5 relative activity over Rd2BB (SEQ ID NO: 10)) | +++ (+++ = >2.5 relative activity over Rd2BB (SEQ ID NO: 10)) | +++ (+++ = >2.5 relative activity over Rd2BB (SEQ ID NO: 10)) | – | – | – | –
